From the Immune Epitope Database (IEDB)

How the values were obtained:
Assay in all cases: IEDB peptide-MHC binding, purified MHC/competitive/radioactivity; ≥ and ≤ were set here for values at or beyond the usual limits of such assays
HLA-A*02:01 = target: HLA-A*02:01
HLA-A*02:02 = target: HLA-A*02:02
HLA-A*02:06 = target: HLA-A*02:06
HLA-A*02:03 = target: HLA-A*02:03
HLA-A*68:02 = target: HLA-A*68:02
[1] = source organism: Vaccinia virus WR
[2] = source organism: Mammarenavirus guanaritoense
[3] = source organism: Hepacivirus hominis

| Sequence | IC50 (HLA-A*02:01; [1]) [nM] | IC50 (HLA-A*02:02; [1]) [nM] | IC50 (HLA-A*02:06; [1]) [nM] | IC50 (HLA-A*02:03; [1]) [nM] | IC50 (HLA-A*68:02; [1]) [nM] | further results |
| --- | --- | --- | --- | --- | --- | --- |
| TLDAANHSI | – | – | – | – | – | IC50 (HLA-A*02:01; source organism: SARS-CoV1): 9.6 nM; IC50 (HLA-A*02:02; source organism: SARS-CoV1): 92 nM; IC50 (HLA-A*02:06; source organism: SARS-CoV1): 29 nM; IC50 (HLA-A*02:03; source organism: SARS-CoV1): 283 nM; IC50 (HLA-A*68:02; source organism: SARS-CoV1): 1020 nM |
| IASSMKGENV | 727 | 751 | 311 | 3240 | 867 | – |
| GTIILNKIV | 3890 | 1190 | 1430 | 3400 | 926 | – |
| ILQMREIIT | 380 | 4100 | 1230 | 1340 | 1160 | – |
| TLPELNLSL | 62 | 135 | 802 | 23 | 309 | – |
| SIYIAVANCV | 1460 | 534 | 1000 | 63 | 306 | – |
| LAYYNSCMLT | 485 | 12 | 86 | 16 | 4.9 | – |
| YIALCKVTV | 15 | 12 | 19 | 24 | 48 | – |
| FVFNGTSWFI | – | – | – | – | – | IC50 (HLA-A*02:01; source organism: SARS-CoV1): 1.1 nM; IC50 (HLA-A*02:02; source organism: SARS-CoV1): 1 nM; IC50 (HLA-A*02:06; source organism: SARS-CoV1): 0.44 nM; IC50 (HLA-A*02:03; source organism: SARS-CoV1): 2.2 nM; IC50 (HLA-A*68:02; source organism: SARS-CoV1): 0.33 nM |
| ITDNGPMPYM | 473 | 828 | 303 | 1180 | 473 | – |
| STISWMMKL | 55 | 92 | 12 | 23 | 0.23 | – |
| IMETIDPVYI | 127 | 29 | 349 | 239 | 821 | – |
| VMYAFTTPLI | 3.1 | 0.72 | 12 | 4.8 | 132 | – |
| WLMWFIISIV | – | – | – | – | – | IC50 (HLA-A*02:01; source organism: SARS-CoV1): 33 nM; IC50 (HLA-A*02:02; source organism: SARS-CoV1): 246 nM; IC50 (HLA-A*02:06; source organism: SARS-CoV1): 107 nM; IC50 (HLA-A*02:03; source organism: SARS-CoV1): 4.7 nM; IC50 (HLA-A*68:02; source organism: SARS-CoV1): 2890 nM |
| IAVSVYGAI | 884 | 1480 | 1100 | 124 | 7.8 | – |
| TILATLNTLI | 184 | 40 | 335 | 30 | 1470 | – |
| KLMGHFSWWT | – | – | – | – | – | IC50 (HLA-A*02:01; source organism: SARS-CoV1): 6.4 nM; IC50 (HLA-A*02:02; source organism: SARS-CoV1): 64 nM; IC50 (HLA-A*02:06; source organism: SARS-CoV1): 99 nM; IC50 (HLA-A*02:03; source organism: SARS-CoV1): 213 nM; IC50 (HLA-A*68:02; source organism: SARS-CoV1): 2080 nM |

| Sequence | IC50 (HLA-A*02:01; [1]) [nM] | IC50 (HLA-A*02:02; [1]) [nM] | IC50 (HLA-A*02:06; [1]) [nM] | IC50 (HLA-A*02:03; [1]) [nM] | IC50 (HLA-A*68:02; [1]) [nM] | further results |
| --- | --- | --- | --- | --- | --- | --- |
| LVIGFLFLA | – | – | – | – | – | IC50 (HLA-A*02:01; source organism: SARS-CoV1): 1.4 nM; IC50 (HLA-A*02:02; source organism: SARS-CoV1): 7.4 nM; IC50 (HLA-A*02:06; source organism: SARS-CoV1): 0.095 nM; IC50 (HLA-A*02:03; source organism: SARS-CoV1): 20 nM; IC50 (HLA-A*68:02; source organism: SARS-CoV1): 26 nM |
| TLVDLCFWS | – | – | – | – | – | IC50 (HLA-A*02:01; [2]): 61 nM; IC50 (HLA-A*02:02; [2]): 58 nM; IC50 (HLA-A*02:06; [2]): 134 nM; IC50 (HLA-A*02:03; [2]): 524 nM; IC50 (HLA-A*68:02; [2]): 4880 nM |
| FMSHVKSVT | 873 | 508 | 4320 | 181 | 2600 | – |
| FIPIIYSKA | 163 | 0.56 | 95 | 1.8 | 78 | – |
| YMSNLFDIPL | 18 | 19 | 127 | 10 | 471 | – |
| KVLSIMAFIL | 88 | 2.3 | 19 | 684 | 2970 | – |
| YLSSVLLAL | – | – | – | – | – | IC50 (HLA-A*02:01; source organism: SARS-CoV1): 0.55 nM; IC50 (HLA-A*02:02; source organism: SARS-CoV1): 0.14 nM; IC50 (HLA-A*02:06; source organism: SARS-CoV1): 8.2 nM; IC50 (HLA-A*02:03; source organism: SARS-CoV1): 0.31 nM; IC50 (HLA-A*68:02; source organism: SARS-CoV1): 10 nM |
| LLALLSCISV | – | – | – | – | – | IC50 (HLA-A*02:01; [3]): 2.4 nM; IC50 (HLA-A*02:02; [3]): 0.77 nM; IC50 (HLA-A*02:06; [3]): 16 nM; IC50 (HLA-A*02:03; [3]): 1.3 nM; IC50 (HLA-A*68:02; [3]): 2450 nM |
| IVVALSSLV | 108 | 27 | 8.2 | 3.9 | 5.4 | – |
| YMLVLAEALI | – | – | – | – | – | IC50 (HLA-A*02:01; [3]): 152 nM; IC50 (HLA-A*02:02; [3]): 107 nM; IC50 (HLA-A*02:06; [3]): 512 nM; IC50 (HLA-A*02:03; [3]): 228 nM; IC50 (HLA-A*68:02; [3]): 974 nM |
| YVIPDELIDV | 23 | 18 | 12 | 14 | 350 | – |
| FLAFVVFLLV | – | – | – | – | – | IC50 (HLA-A*02:01; source organism: SARS-CoV1): 78 nM; IC50 (HLA-A*02:02; source organism: SARS-CoV1): 2.4 nM; IC50 (HLA-A*02:06; source organism: SARS-CoV1): 2980 nM; IC50 (HLA-A*02:03; source organism: SARS-CoV1): 211 nM; IC50 (HLA-A*68:02; source organism: SARS-CoV1): 4320 nM |
| ALVSDCASTI | 72 | 94 | 240 | 52 | 530 | – |
| FQESFYEDIA | 4840 | 2560 | 303 | 555 | 2910 | – |
| MLLTFLTSLL | – | – | – | – | – | IC50 (HLA-A*02:01; source organism: SARS-CoV1): 11 nM; IC50 (HLA-A*02:02; source organism: SARS-CoV1): 0.73 nM; IC50 (HLA-A*02:06; source organism: SARS-CoV1): 25 nM; IC50 (HLA-A*02:03; source organism: SARS-CoV1): 7.3 nM; IC50 (HLA-A*68:02; source organism: SARS-CoV1): 299 nM |
| SLEATFIDV | 182 | 35 | 10 | 80 | 23 | – |
| LIAGIILLIL | 540 | 141 | 345 | 680 | 143 | – |
